Reference: patent US20160243215A1

Columns and labels:
[1] = molecular target: 405C full-length gp160 Env on SHIV (HIV-1 clade C, isolate 405C); assay: cell-based or functional assay
[2] = molecular target: 459C full-length gp160 Env on SHIV (HIV-1 clade C, isolate 459C); assay: cell-based or functional assay
[3] = molecular target: 405C gp120 monomer (HIV-1 clade C, isolate 405C); assay: SPR; CD4 coupled to CM5 chip, Env flowed over; 1:1 model; 405C gp120 monomer as analyte
[4] = molecular target: 405C gp140 trimer (405C gp140-foldon, gp140Fd) (HIV-1 clade C, isolate 405C); assay: SPR; CD4 coupled to CM5 chip, Env flowed over; 1:1 model
[5] = molecular target: 459C gp140 trimer (459C gp140-foldon, gp140Fd) (HIV-1 clade C, isolate 459C); assay: as above
[6] = molecular target: 459C gp120 monomer (HIV-1 clade C, isolate 459C); assay: as above
[7] = molecular target: 939C gp120 monomer (HIV-1 clade C, isolate 939C); assay: as above
[8] = molecular target: 939C gp140 trimer (939C gp140-foldon, gp140Fd) (HIV-1 clade C, isolate 939C); assay: as above
[9] = molecular target: 405C gp140 trimer (405C gp140-foldon, gp140Fd) (HIV-1 clade C, isolate 405C); assay: SPR; CD4 coupled to CM5 chip, Env flowed over; 1:1 model; 405C gp140 trimer as analyte
[10] = molecular target: 405C gp140 trimer (405C gp140-foldon, gp140Fd) (HIV-1 clade C, isolate 405C); assay: SPR; 17b IgG captured on protein A, trimer at 1000 nM with against without bound CD4
[11] = molecular target: 459C gp140 trimer (459C gp140-foldon, gp140Fd) (HIV-1 clade C, isolate 459C); assay: as above
[12] = molecular target: 939C gp140 trimer (939C gp140-foldon, gp140Fd) (HIV-1 clade C, isolate 939C); assay: as above

In the case of “sCD4 (soluble CD4) (from UniProt P01730 26-208) (receptor)”, the IC50 Titers (TZM.bl cells, ug/ml) [1] is reported as > 50 µg/mL and the IC50 Titers (TZM.bl cells, ug/ml) [2] is reported as 48.7 µg/mL.
In the case of 2F5 IgG (antibody), the IC50 Titers (TZM.bl cells, ug/ml) [1] is reported as > 50 µg/mL and the IC50 Titers (TZM.bl cells, ug/ml) [2] is reported as > 50 µg/mL.
In the case of PGT128 IgG (antibody), the IC50 Titers (TZM.bl cells, ug/ml) [1] is reported as 45.9 µg/mL and the IC50 Titers (TZM.bl cells, ug/ml) [2] is reported as 0.65 µg/mL.
In the case of 2G12 IgG (antibody), the IC50 Titers (TZM.bl cells, ug/ml) [1] is reported as > 50 µg/mL and the IC50 Titers (TZM.bl cells, ug/ml) [2] is reported as > 50 µg/mL.
For 4E10 IgG (antibody), the IC50 Titers (TZM.bl cells, ug/ml) [1] was 18.2 µg/mL and the IC50 Titers (TZM.bl cells, ug/ml) [2] was > 50 µg/mL.
Work on “Soluble two-domain CD4 (from UniProt P01730 26-208) (receptor)” yielded a koff [3] of 0.000327 s⁻¹, a kon [3] of 5560 M⁻¹ s⁻¹ and a koff [4] of 0.000196 s⁻¹. It also gave a kon [4] of 15400 M⁻¹ s⁻¹, a Kd [5] of 4.17 nM and a koff [5] of 9.89e-05 s⁻¹. It also gave a kon [5] of 23700 M⁻¹ s⁻¹, a Kd [6] of 26.9 nM and a koff [6] of 0.00049 s⁻¹. For the same substance, the kon [6] was 18200 M⁻¹ s⁻¹, the Kd [7] was 15.9 nM and the koff [7] was 0.00031 s⁻¹. It also gave a kon [7] of 19500 M⁻¹ s⁻¹, a Kd [8] of 12.5 nM and a koff [8] of 0.000206 s⁻¹. For the same substance, the kon [8] was 16500 M⁻¹ s⁻¹ and the Kd [9] was 12.3 nM.
17b IgG (antibody) was tested, and the fold increase in magnitude of binding when the trimer is bound to CD4 [10] was 4 fold, the fold increase in magnitude of binding when the trimer is bound to CD4 [11] was 4 fold and the fold increase in magnitude of binding when the trimer is bound to CD4 [12] was 4 fold.
